From patent US20260014245A1

Columns and labels:
[1] = molecular target: DPP4/CD26 on human CD3 expressing T cells (human) (UniProt P27487); assay: flow cytometry of human PBMCs, MERS-RBD - AF488 against CD3 - PerCP-Cy5
[2] = molecular target: MERS-CoV RBD (wild type, amino acids G372-L588, AviTag, Twin Strep tag, 6xHis) (MERS-CoV); assay: rabbit DPP4

Chain of DPP4/CD26 on human CD3 expressing T cells (human) (P27487 whole entry, the tested form may be a part): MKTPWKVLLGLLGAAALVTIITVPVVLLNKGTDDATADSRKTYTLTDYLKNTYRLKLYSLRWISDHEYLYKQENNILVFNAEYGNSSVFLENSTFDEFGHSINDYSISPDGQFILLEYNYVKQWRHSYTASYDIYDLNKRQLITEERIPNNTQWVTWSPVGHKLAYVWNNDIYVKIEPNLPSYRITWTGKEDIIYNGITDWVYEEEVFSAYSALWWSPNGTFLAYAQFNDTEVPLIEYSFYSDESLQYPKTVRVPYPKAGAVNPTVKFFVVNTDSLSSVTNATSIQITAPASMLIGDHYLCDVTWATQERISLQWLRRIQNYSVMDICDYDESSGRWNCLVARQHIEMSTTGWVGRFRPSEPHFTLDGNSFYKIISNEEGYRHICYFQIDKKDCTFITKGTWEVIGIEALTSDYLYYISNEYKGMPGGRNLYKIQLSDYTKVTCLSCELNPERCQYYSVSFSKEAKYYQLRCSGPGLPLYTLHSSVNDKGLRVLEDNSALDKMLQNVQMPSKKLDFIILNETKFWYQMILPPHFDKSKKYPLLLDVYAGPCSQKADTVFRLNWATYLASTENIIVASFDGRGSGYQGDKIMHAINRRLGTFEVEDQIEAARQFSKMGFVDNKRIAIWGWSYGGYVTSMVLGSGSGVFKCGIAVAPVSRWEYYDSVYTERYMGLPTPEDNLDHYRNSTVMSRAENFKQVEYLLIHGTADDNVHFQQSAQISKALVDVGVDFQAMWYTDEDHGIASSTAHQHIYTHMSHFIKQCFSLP

Row | Substance | CD3+ MERS-RBD+ quadrant frequency (percent of gated DAPI- lymphocytes) [1] | Kd [2]
1 | MERS-CoV RBD (wild type, amino acids G372-L588, AviTag, Twin Strep tag, 6xHis) (ligand; other documents disagree on this pair) | 4.92 | 
2 | recombinant rabbit DPP4 with a C-terminal 6xHis-tag (rbDPP4-His) (from UniProt A0A5F9CKR3 29-732) (receptor) |  | 34.3 nM
